Source: publication PMC12102759

B1: TPTE2 peptide 94-109 (Phosphatidylinositol 3,4,5-trisphosphate 3-phosphatase TPTE2), 16-mer library wild type / TLN1 PTB (TLN1 Phosphotyrosine-binding (PTB) domain, residues 309-401) (parent)
chain 1: DLIFTDSKLYIPLEYR
chain 2: GVSFFLVKEKMKGKNKLVPRLLGITKECVMRVDEKTKEVIQEWNLTNIKRWAASPKSFTLDFGDYQDGYYSVQTTEGEQIAQLIAGYIDIILK
B2: SH3BP2 peptide 410-425 (SH3 domain-binding protein 2), 16-mer library wild type / TNKS ANK (TNKS 12 ANK repeats, residues 174-649) (parent)
chain 1: LPHLQRSPPDGQSFRS
chain 2: TGVPAVSGALRELLEACRNGDVSRVKRLVDAANVNAKDMAGRKSSPLHFAAGFGRKDVVEHLLQMGANVHARDDGGLIPLHNACSFGHAEVVSLLLCQGADPNARDNWNYTPLHEAAIKGKIDVCIVLLQHGADPNIRNTDGKSALDLADPSAKAVLTGEYKKDELLEAARSGNEEKLMALLTPLNVNCHASDGRKSTPLHLAAGYNRVRIVQLLLQHGADVHAKDKGGLVPLHNACSYGHYEVTELLLKHGACVNAMDLWQFTPLHEAASKNRVEVCSLLLSHGADPTLVNCHGKSAVDMAPTPELRERLTYEFKGHSLLQAAREADLAKVKKTLALEIINFKQPQSHETALHCAVASLHPKRKQVTELLLRKGANVNEKNKDFMTPLHVAAERAHNDVMEVLHKHGAKMNALDTLGQTALHRAALAGHLQTCRLLLSYGSDPSIISLQGFTAAQMGNEAVQQILSESTPIRTSD

Variants of: B1
Assay: proteomic peptide phage display deep mutational scan (ProP-PD DMS): M13 P8 16-mer library selected against immobilised GST-tagged bait for four days (rounds), NGS of the eluted pools per day and pseudo-replica
Conditions: with TLN1 PTB (TLN1 Phosphotyrosine-binding (PTB) domain, residues 309-401); bait immobilised on MaxiSorp plates (10 µg), library pre-cleared on GST, 2 h binding at 4 °C, five washes; one round per day, days 1-4; value from days 2 and 3; keep out of graded; scale: average fractional NGS count over selection days 2 and 3

screen value	Variant
0.000118	chain 1 DLIFIDSKLYIPLEYR [chain 1 T5I]
0	chain 1 DLIFLDSKLYIPLEYR [chain 1 T5L]
0.00106	chain 1 DLIFQDSKLYIPLEYR [chain 1 T5Q]
0	chain 1 DLIFRDSKLYIPLEYR [chain 1 T5R]
4.81e-05	chain 1 DLIFSDSKLYIPLEYR [chain 1 T5S]
0	chain 1 DLIFKDSKLYIPLEYR [chain 1 T5K]
8.75e-05	chain 1 DLIFYDSKLYIPLEYR [chain 1 T5Y]
4.49e-05	chain 1 DLIFWDSKLYIPLEYR [chain 1 T5W]
0.000128	chain 1 DLIFNDSKLYIPLEYR [chain 1 T5N]
0.00155	chain 1 DLIFVDSKLYIPLEYR [chain 1 T5V]
4.1e-05	chain 1 DLIFTDSKLYIPLERR [chain 1 Y15R]
0.00364	chain 1 DLIFTDSKLYIPLEIR [chain 1 Y15I]
0.000703	chain 1 DLIFTDSKLYIPLEVR [chain 1 Y15V]
0.00142	chain 1 DLIFTDSKLYIPLEQR [chain 1 Y15Q]
0.000539	chain 1 DLIFTDSKLYIPLEKR [chain 1 Y15K]
0.00159	chain 1 DLIFTDSKLYIPLEMR [chain 1 Y15M]

screen value	Variant
0.0011	chain 1 DLIFTDSKLYIPLETR [chain 1 Y15T]
0.00244	chain 1 DLIFTDSKLYIPLEER [chain 1 Y15E]
0.000355	chain 1 DLIFTDSKLYIPLEHR [chain 1 Y15H]
0.00054	chain 1 DLIFTDSKLYIPLESR [chain 1 Y15S]
0.000999	chain 1 DLIFTDSKLYIPLENR [chain 1 Y15N]
0.00117	chain 1 DLIFTDSKLYIPLEPR [chain 1 Y15P]
0.00819	chain 1 DLIFTDSKLYIPLEAR [chain 1 Y15A]
0.000157	chain 1 DLIFTDSKLYIPLEFR [chain 1 Y15F]
0.00294	chain 1 DLIFTDSKLYIPLEDR [chain 1 Y15D]
0.00052	chain 1 DLIFTDSKLYIPLELR [chain 1 Y15L]
0.000939	chain 1 DLIFTDSKLYIPLEGR [chain 1 Y15G]
0.00208	chain 1 DLIFTDSKLYIPLEWR [chain 1 Y15W]
6.96e-05	chain 1 DLIFTDSKLFIPLEYR [chain 1 Y10F]
0	chain 1 DLIFTDSKLRIPLEYR [chain 1 Y10R]
0.00022	chain 1 DLIFTDSKLWIPLEYR [chain 1 Y10W]

Variants of: B2
Assay: as above
Conditions: with TNKS ANK (TNKS 12 ANK repeats, residues 174-649); bait immobilised on MaxiSorp plates (10 µg), library pre-cleared on GST, 2 h binding at 4 °C, five washes; one round per day, days 1-4; value from days 2 and 3; keep out of graded; scale: average fractional NGS count over selection days 2 and 3

screen value	Variant
6.89e-05	chain 1 LPHLQRSPPDGDSFRS [chain 1 Q12D]
6.14e-05	chain 1 LPHLQRSPPDGRSFRS [chain 1 Q12R]
2.25e-05	chain 1 LPHRQRSPPDGQSFRS [chain 1 L4R]
3.15e-05	chain 1 LPHKQRSPPDGQSFRS [chain 1 L4K]
3.03e-05	chain 1 LKHLQRSPPDGQSFRS [chain 1 P2K]
0	chain 1 LWHLQRSPPDGQSFRS [chain 1 P2W]
4.27e-05	chain 1 LYHLQRSPPDGQSFRS [chain 1 P2Y]
0.000124	chain 1 LPHLQRSPPDGQSFYS [chain 1 R15Y]
0.000123	chain 1 LPHLQRSPMDGQSFRS [chain 1 P9M]
4.06e-05	chain 1 LPHLQRSPIDGQSFRS [chain 1 P9I]
0	chain 1 LPHLQRSPLDGQSFRS [chain 1 P9L]
0	chain 1 LPHLQRSPVDGQSFRS [chain 1 P9V]
8.27e-05	chain 1 LPHLQRRPPDGQSFRS [chain 1 S7R]
0	chain 1 LPHLQRGPPDGQSFRS [chain 1 S7G]
1.87e-05	chain 1 LPHLQRWPPDGQSFRS [chain 1 S7W]
8.68e-05	chain 1 LPHLQRAPPDGQSFRS [chain 1 S7A]
0	chain 1 LPHLQRSPPDGQKFRS [chain 1 S13K]
0.000125	chain 1 LPHLQRSPPDGQWFRS [chain 1 S13W]
3.04e-05	chain 1 LPHLQRSPPDGQRFRS [chain 1 S13R]
7.2e-05	chain 1 LPHLQRSPPWGQSFRS [chain 1 D10W]
0	chain 1 LPHLQRSPPFGQSFRS [chain 1 D10F]
0	chain 1 LPHLQRSPPNGQSFRS [chain 1 D10N]
7.49e-05	chain 1 LPHLQRSPPSGQSFRS [chain 1 D10S]
0	chain 1 LPHLQRSPPHGQSFRS [chain 1 D10H]

screen value	Variant
3.11e-05	chain 1 LPHLQRSPPMGQSFRS [chain 1 D10M]
4.95e-05	chain 1 LPHLQRSPPRGQSFRS [chain 1 D10R]
4.19e-05	chain 1 LPDLQRSPPDGQSFRS [chain 1 H3D]
3.96e-05	chain 1 LPRLQRSPPDGQSFRS [chain 1 H3R]
9.56e-05	chain 1 LPSLQRSPPDGQSFRS [chain 1 H3S]
5.51e-05	chain 1 LPKLQRSPPDGQSFRS [chain 1 H3K]
8.51e-05	chain 1 LPHLQRSGPDGQSFRS [chain 1 P8G]
7.62e-05	chain 1 LPHLQRSWPDGQSFRS [chain 1 P8W]
0.000116	chain 1 LPHLQRSFPDGQSFRS [chain 1 P8F]
0.000101	chain 1 LPHLQRSPPDDQSFRS [chain 1 G11D]
2.25e-05	chain 1 LPHLQRSPPDRQSFRS [chain 1 G11R]
0	chain 1 LPHLQRSPPDLQSFRS [chain 1 G11L]
0	chain 1 LPHLQRSPPDAQSFRS [chain 1 G11A]
0	chain 1 LPHLQRSPPDEQSFRS [chain 1 G11E]
0	chain 1 LPHLQKSPPDGQSFRS [chain 1 R6K]
0	chain 1 LPHLQTSPPDGQSFRS [chain 1 R6T]
0	chain 1 LPHLQQSPPDGQSFRS [chain 1 R6Q]
0	chain 1 LPHLQASPPDGQSFRS [chain 1 R6A]
0	chain 1 LPHLQESPPDGQSFRS [chain 1 R6E]
4.06e-05	chain 1 LPHLQVSPPDGQSFRS [chain 1 R6V]
6.18e-05	chain 1 LPHLRRSPPDGQSFRS [chain 1 Q5R]
7.42e-05	chain 1 LPHLIRSPPDGQSFRS [chain 1 Q5I]
2.25e-05	chain 1 LPHLQRSPPDGQSRRS [chain 1 F14R]
